The assay concerns the target T1, human c-Met/Fc fusion protein (R&D Systems) (human, UniProt P08581 25-932).
T1 construct: Bought reagent; Coated on the ELISA plate at 2 ug/mL; also called human c-Met/Fc protein; not shown: Fc part of the bought fusion protein; not described
The assay is described as follows: ELISA, human c-Met/Fc coated at 2 ug/mL, hybridoma culture, anti-mouse IgG-HRP. The protocol:
Human c-Met/Fc fusion protein was seeded in an amount of 50 μL (2 μg/mL)/well to microtiter plates and allowed to adhere to the surface of each well. The antibody that remained unbound was removed by washing.
The hybridoma cell culture obtained in Reference Example 1.1.2 was added in an amount of 50 μL to each well of the plates and incubated for 1 hour. The cells remaining unreacted were washed out with a sufficient amount of Tris-buffered saline and Tween 20 (TBST). Goat anti-mouse IgG-horseradish peroxidase (HRP) was added to the plates and incubated for 1 hour at room temperature. The plates were washed with a sufficient amount of TBST, followed by reacting the peroxidase with a substrate (OPD). Absorbance at 450 nm was measured on an ELISA reader.

T1 sequence (P08581 25-932 limits assumed): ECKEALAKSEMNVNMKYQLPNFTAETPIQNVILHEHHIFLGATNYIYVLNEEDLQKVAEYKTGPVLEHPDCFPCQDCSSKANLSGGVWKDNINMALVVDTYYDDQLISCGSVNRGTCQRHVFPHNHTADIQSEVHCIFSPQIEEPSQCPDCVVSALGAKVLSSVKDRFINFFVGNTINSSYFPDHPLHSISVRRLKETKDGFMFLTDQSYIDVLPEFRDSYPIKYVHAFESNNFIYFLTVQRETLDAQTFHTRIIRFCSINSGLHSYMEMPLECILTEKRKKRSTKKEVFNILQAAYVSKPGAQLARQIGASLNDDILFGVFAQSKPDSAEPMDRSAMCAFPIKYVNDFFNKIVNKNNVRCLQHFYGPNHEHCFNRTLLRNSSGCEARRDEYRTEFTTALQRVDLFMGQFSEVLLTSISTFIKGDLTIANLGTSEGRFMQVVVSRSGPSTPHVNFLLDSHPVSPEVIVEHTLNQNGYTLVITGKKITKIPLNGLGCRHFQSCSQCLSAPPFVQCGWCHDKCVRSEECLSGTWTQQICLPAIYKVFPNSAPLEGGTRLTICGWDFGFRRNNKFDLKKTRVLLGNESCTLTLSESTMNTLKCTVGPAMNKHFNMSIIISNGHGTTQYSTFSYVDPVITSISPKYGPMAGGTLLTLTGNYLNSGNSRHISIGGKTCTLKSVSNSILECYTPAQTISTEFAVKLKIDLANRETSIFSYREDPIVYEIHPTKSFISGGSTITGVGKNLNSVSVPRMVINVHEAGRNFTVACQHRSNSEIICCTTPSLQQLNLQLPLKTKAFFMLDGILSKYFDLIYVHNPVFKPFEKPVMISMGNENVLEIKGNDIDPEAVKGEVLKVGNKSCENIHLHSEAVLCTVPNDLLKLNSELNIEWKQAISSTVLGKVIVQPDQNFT

B1: AbF46, mouse monoclonal antibody to c-Met (antibody, V domains shown)
VH: EVKLVESGGGLVQPGGSLRLSCATSGFTFTDYYMSWVRQPPGKALEWLGFIRNKANGYTTEYSASVKGRFTISRDNSQSILYLQMDTLRAEDSATYYCARDNWFAYWGQGTLVTVSA
VL: DILMTQSPSSLTVSAGEKVTMSCKSSQSLLASGNQNNYLAWHQQKPGRSPKMLIIWASTRVSGVPDRFIGSGSGTDFTLTINSVQAEDLAVYYCQQSYSAPLTFGAGTKLELK
notes: Tested as hybridoma culture supernatant in the selection ELISA; also called monoclonal antibody produced by hybridoma KCLRF-BP-00220
For the molecule B1, the binding result is given as “binds”.

Source of the values: patent publication US20140294830A1 (SAMSUNG LIFE WELFARE FOUNDATION, published 2014).
